Common to all, as to assay: NMR
The test system of one data set is Tyr5. As to conditions: 25 °C; <60 mM (no added salt; only HCl/NaOH used for pH adjustment); none (water without buffer); folded dimer, free protein, about 1.5 mM.
Another data set deals with Lys53. As to conditions: 25 °C; <60 mM (no added salt; only HCl/NaOH used for pH adjustment); none (water without buffer); folded dimer, free protein, about 1.5 mM.
A further data set relates to Lys12. As to conditions: 25 °C; <60 mM (no added salt; only HCl/NaOH used for pH adjustment); none (water without buffer); folded dimer, free protein, about 1.5 mM.
The subject of the next data set is Tyr16. As to conditions: 25 °C; <60 mM (no added salt; only HCl/NaOH used for pH adjustment); none (water without buffer); folded dimer, free protein, about 1.5 mM.
The next data set has as its system Lys6. As to conditions: 25 °C; <60 mM (no added salt; only HCl/NaOH used for pH adjustment); none (water without buffer); folded dimer, free protein, about 1.5 mM.
In another data set the test system is Lys32. As to conditions: 25 °C; <60 mM (no added salt; only HCl/NaOH used for pH adjustment); none (water without buffer); folded dimer, free protein, about 1.5 mM.
The test system of a further data set is Lys45. As to conditions: 25 °C; <60 mM (no added salt; only HCl/NaOH used for pH adjustment); none (water without buffer); folded dimer, free protein, about 1.5 mM.
Another data set concerns Lys56. As to conditions: 25 °C; <60 mM (no added salt; only HCl/NaOH used for pH adjustment); none (water without buffer); folded dimer, free protein, about 1.5 mM.
A further data set relates to Lys30. As to conditions: 25 °C; <60 mM (no added salt; only HCl/NaOH used for pH adjustment); none (water without buffer); folded dimer, free protein, about 1.5 mM.
In the next data set the test system is Lys55. As to conditions: 25 °C; <60 mM (no added salt; only HCl/NaOH used for pH adjustment); none (water without buffer); folded dimer, free protein, about 1.5 mM.
The test system of the next data set is Tyr47. As to conditions: folded dimer.
The target in a further data set is His31 (UniProt position 31, TIGIGHLLTKS). As to conditions: cited from earlier work.

Regarding “Ribbon-helix-helix (rhh) protein ORF56 from plasmid pRN1 (Sulfolobus islandicus (plasmid pRN1))”, the pKa with Tyr5 came out at 9.85 ± 0.01; in the data set on Lys53, 10.25 ± 0.02; in the data set on Lys12, 10.54 ± 0.01; with Tyr16 it was 9.85 ± 0.01; in the data set on Lys6, 10.79 ± 0.01; with Lys32 it was 10.48 ± 0.01. Besides, the pKa in the data set on Lys45 was 11.27 ± 0.02; with Lys56, 10.96 ± 0.03; with Lys30, 10.86 ± 0.01; with Lys55, 11.08 ± 0.04; in the data set with Tyr47 (25 °C, <60 mM (no added salt; only HCl/NaOH used for pH adjustment), none (water without buffer), free protein, about 1.5 mM) it was >13.7; in the data set on Tyr47 (cited from earlier work), “above pH 13”.

As for “T4 lysozyme (Enterobacteria phage T4 (Tequatrovirus T4))”, the pKa with His31 is recorded as 9.

The pKa is the pH at which an ionisable group is half protonated.
